± gives the uncertainty stated by the source.
Test: self-splicing fitness, log relative to wild type (ln ratio); higher = more splicing; Tetrahymena group I intron in knt gene, E. coli kanamycin selection, DiMSum; sequences stand for … in CUCUCU…GGAGGGAAAAGUUAUCAGGCAUGCACCUGGUAGCUAGUCUUUAAACCAAUAGAUUGCAUCGGUUUAAAAGGCAAGACCGUCAAAUUGCGGGAAAGGGGUCAACAGCCGUUCAGUACCAAGUCUCAGGGGAAACUUUGAGAUGGCCUUGCAAAGGGUAUGGUAAUAAGCUGACGGACAUGGUCCUAACCACGCAGCCAAGUCCUAAGUCAACAGAUCUUCUGUUGAUAUGGAUGCAGUUCACAGACUAAAUGUCGGUCGGGGAAGAUGUAUUCUUCUCAUAAGAUAUAGUCGGACCUCUCCUUAAUGGGAGCUAGCGGAUGAAGUGAUGCAACACUGGAGCCGCUGGGAACUAAUUUGUAUGCGAAAGUAUAUUGAUUAGUUUUGGAGUACUCGUGGUCG
Method in brief: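 Colonies from six replicate transformations of E. coli BL21(DE3) were pooled and amplicon-sequenced on an Illumina HiSeq 2500. The library placed an intron with all eight P1ex-region nucleotides randomised inside the knt kanamycin-resistance gene on pET-22b(+), and cells grew overnight at 37°C or 30°C on LB agar with or without 25 μg/mL kanamycin (plus 100 μg/mL carbenicillin, 50 μM IPTG, 0.2% rhamnose). Fitness is the DiMSum error-weighted combination of wild-type-normalised replicate fold changes, kanamycin versus none.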

Row | Sequence | self-splicing fitness (ln) (30 °C) | self-splicing fitness (ln) (37 °C)
1 | GGUCAGCAAUAUUACGCCUG | -2.9 ± 0.2 | -0.721 ± 0.12
2 | GGUCAGCAAUAUUACGCGCG | -0.298 ± 0.092 | -0.546 ± 0.11
3 | GGUCAGCAAUAUUACGCUGA | -3.21 ± 0.44 | -1.95 ± 0.32
4 | GGUCAGCAAUAUUACGGAAU | -0.593 ± 0.054 | -0.0986 ± 0.069
5 | GGUCAGCAAUAUUACGGUAA | -0.874 ± 0.071 | -0.111 ± 0.069
6 | GGUCAGCAAUAUUACGUACA | -0.423 ± 0.087 | 0.547 ± 0.14
7 | GGUCAGCAAUAUUACGUCGU | 0.302 ± 0.08 | 0.488 ± 0.082
8 | GGUCAGCAAUAUUACGUGAA | -0.356 ± 0.086 | 0.381 ± 0.096
9 | GGUCAGCAAUAUUACGUUGU | -1.51 ± 0.057 | -0.47 ± 0.068
10 | GGUGAGCAAUAUUACGAAUA | -2.09 ± 0.33 | 
11 | GGUGAGCAAUAUUACGAGGG | -3.16 ± 0.26 | -2.43 ± 0.24
12 | GGUGAGCAAUAUUACGCAGC |  | -1.93 ± 0.34
13 | GGUGAGCAAUAUUACGCGUG | -1.22 ± 0.16 | -1.52 ± 0.21
14 | GGUGAGCAAUAUUACGGAAC | -1.27 ± 0.21 | -0.837 ± 0.24
15 | GGUGAGCAAUAUUACGGCUC | -1.94 ± 0.24 | -0.104 ± 0.3
16 | GGUGAGCAAUAUUACGGGAG | -1.79 ± 0.28 | -2.68 ± 0.48
17 | GGUGAGCAAUAUUACGGGGG | -3.41 ± 0.43 | 
18 | GGUGAGCAAUAUUACGGGGU | -3.31 ± 0.17 | -2.94 ± 0.26
19 | GGUGAGCAAUAUUACGGGUG | -3.18 ± 0.26 | -2.7 ± 0.27
20 | GGUGAGCAAUAUUACGGGUU |  | -2.59 ± 0.36

Row | Sequence | self-splicing fitness (ln) (30 °C) | self-splicing fitness (ln) (37 °C)
21 | GGUGAGCAAUAUUACGGUCC | -1.66 ± 0.13 | -0.523 ± 0.15
22 | GGUGAGCAAUAUUACGUACU | -1.89 ± 0.14 | -1.75 ± 0.17
23 | GGUGAGCAAUAUUACGUAGA | -3.01 ± 0.33 | -2.19 ± 0.29
24 | GGUGAGCAAUAUUACGUAGG | -3.15 ± 0.27 | -2.07 ± 0.32
25 | GGUGAGCAAUAUUACGUAUC | -1.77 ± 0.1 | -0.807 ± 0.12
26 | GGUGAGCAAUAUUACGUGCC | -3.67 ± 0.33 | -2.67 ± 0.38
27 | GGUGAGCAAUAUUACGUGCU | -1.66 ± 0.18 | -1.74 ± 0.37
28 | GGUUAGCAAUAUUACGAAAC |  | -1.68 ± 0.41
29 | GGUUAGCAAUAUUACGAAGU | -0.268 ± 0.2 | -0.745 ± 0.18
30 | GGUUAGCAAUAUUACGACAC | 0.342 ± 0.2 | -0.137 ± 0.24
31 | GGUUAGCAAUAUUACGACCA | -1.69 ± 0.32 | -0.631 ± 0.3
32 | GGUUAGCAAUAUUACGAUAA | -0.985 ± 0.12 | -0.35 ± 0.14
33 | GGUUAGCAAUAUUACGAUCA | -0.0432 ± 0.15 | -0.342 ± 0.13
34 | GGUUAGCAAUAUUACGAUUC | -0.602 ± 0.11 | -0.718 ± 0.17
35 | GGUUAGCAAUAUUACGCACU | -2.48 ± 0.28 | -2.32 ± 0.25
36 | GGUUAGCAAUAUUACGCAUC | -0.527 ± 0.33 | -0.989 ± 0.38
37 | GGUUAGCAAUAUUACGCGGG | -3.71 ± 0.22 | -1.23 ± 0.12
38 | GGUUAGCAAUAUUACGGCAC | -0.473 ± 0.15 | -0.251 ± 0.18
39 | GGUUAGCAAUAUUACGGUCA | 0.387 ± 0.31 | -1.03 ± 0.12
